From US20050234225A1

Legend:
cell-surface KDR (human) = cell-surface KDR (human) (UniProt P35968); assay: cell-based or functional assay
[1] = molecular target: KDR-alkaline phosphatase (AP) soluble fusion protein (human) (UniProt P35968); assay: BIAcore SPR, KDR immobilized
[2] = molecular target: KDR-alkaline phosphatase (AP) soluble fusion protein (human) (UniProt P35968); assay: competitive blocking ELISA: antibody pre-incubated with KDR-AP, then binding of KDR-AP to immobilised VEGF165, A405

Sequence of KDR-alkaline phosphatase (AP) soluble fusion protein (human) (P35968 20-764): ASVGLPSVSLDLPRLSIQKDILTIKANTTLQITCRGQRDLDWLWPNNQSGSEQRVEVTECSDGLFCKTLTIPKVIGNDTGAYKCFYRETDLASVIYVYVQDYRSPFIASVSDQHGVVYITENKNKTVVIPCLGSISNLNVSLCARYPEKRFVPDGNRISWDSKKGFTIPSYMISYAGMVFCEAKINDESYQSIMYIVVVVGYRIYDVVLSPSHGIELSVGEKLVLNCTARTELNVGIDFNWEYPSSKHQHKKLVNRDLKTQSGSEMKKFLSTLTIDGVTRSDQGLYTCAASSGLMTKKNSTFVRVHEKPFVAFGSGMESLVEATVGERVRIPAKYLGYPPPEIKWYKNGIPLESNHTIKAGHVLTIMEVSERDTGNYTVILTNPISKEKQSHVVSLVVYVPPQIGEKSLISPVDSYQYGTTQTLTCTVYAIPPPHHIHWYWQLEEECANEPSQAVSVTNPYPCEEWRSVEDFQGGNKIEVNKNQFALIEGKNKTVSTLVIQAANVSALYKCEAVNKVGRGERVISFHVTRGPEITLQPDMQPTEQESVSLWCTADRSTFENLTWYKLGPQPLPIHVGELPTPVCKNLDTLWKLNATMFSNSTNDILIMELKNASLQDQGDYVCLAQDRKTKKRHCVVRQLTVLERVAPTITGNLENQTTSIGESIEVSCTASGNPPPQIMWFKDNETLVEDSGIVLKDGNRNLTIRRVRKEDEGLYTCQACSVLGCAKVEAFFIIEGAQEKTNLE
Sequence of cell-surface KDR (human) (P35968 20-1356): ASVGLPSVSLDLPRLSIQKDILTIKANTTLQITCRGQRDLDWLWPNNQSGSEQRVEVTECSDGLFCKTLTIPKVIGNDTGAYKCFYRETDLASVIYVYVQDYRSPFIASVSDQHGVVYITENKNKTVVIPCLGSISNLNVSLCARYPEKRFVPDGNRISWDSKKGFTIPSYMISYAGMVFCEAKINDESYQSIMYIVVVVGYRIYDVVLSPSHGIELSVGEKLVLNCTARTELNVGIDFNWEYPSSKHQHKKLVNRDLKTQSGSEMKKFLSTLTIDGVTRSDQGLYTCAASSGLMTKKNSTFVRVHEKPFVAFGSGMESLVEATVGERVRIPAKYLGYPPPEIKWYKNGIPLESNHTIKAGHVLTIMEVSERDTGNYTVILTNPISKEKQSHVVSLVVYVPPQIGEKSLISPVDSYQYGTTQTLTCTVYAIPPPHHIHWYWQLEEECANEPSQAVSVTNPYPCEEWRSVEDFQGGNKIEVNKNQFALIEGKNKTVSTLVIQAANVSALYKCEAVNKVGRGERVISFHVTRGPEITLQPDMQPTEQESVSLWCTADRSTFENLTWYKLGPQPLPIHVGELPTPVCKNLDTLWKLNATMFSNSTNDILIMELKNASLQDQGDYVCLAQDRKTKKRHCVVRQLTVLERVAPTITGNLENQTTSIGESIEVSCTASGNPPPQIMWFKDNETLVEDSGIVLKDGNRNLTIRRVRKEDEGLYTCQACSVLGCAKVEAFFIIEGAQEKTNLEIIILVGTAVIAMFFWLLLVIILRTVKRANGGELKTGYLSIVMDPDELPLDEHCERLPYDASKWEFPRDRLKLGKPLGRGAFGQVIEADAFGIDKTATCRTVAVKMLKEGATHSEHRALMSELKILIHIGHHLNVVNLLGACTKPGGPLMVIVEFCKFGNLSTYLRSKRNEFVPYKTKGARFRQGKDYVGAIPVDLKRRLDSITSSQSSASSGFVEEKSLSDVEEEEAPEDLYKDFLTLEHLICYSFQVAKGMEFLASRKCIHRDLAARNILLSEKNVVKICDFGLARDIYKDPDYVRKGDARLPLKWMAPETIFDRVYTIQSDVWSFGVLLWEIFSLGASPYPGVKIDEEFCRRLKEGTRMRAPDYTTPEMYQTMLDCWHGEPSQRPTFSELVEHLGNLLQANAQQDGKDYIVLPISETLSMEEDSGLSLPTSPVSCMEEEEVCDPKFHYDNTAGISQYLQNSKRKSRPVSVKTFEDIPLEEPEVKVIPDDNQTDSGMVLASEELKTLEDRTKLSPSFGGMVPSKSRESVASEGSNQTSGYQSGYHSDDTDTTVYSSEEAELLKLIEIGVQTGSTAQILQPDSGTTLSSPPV

Substance: IMC-1C11 (antibody)
- ED50 of inhibition of VEGF-stimulated [3H]-TdR incorporation in HUVEC (cell-surface KDR (human)): 1.5 nM
- Kd [1]: 0.27 nM
- fold change of Kd against its Fab counterpart [1]: 5 fold
- koff [1]: 3.7e-05 s⁻¹
- kon [1]: 134000 M⁻¹ s⁻¹
- IC50 (read off the curve) [2]: 1 nM
